Tested on: Escherichia coli TOP10
Assay: shrunken log2 fold change of peptide-encoding DNA abundance (4.5 h post-induction vs induction); higher = less antimicrobial activity (less host growth inhibition)
Details: time post-induction: 4.5 h; library: site-saturation at positions 5, 18, 19, 20
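Further: peptides expressed intracellularly from a pBAD plasmid library in pooled LB shake-flask culture, induced with 0.3% L-arabinose, DNA abundance read by NGS, three biological replicates, DESeq2 with apeglm shrinkage.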

Row | Sequence | shrunken log2 fold change
1 | RRIRCRPPRLPRPRPRPLCTPRP | -0.088
2 | RRIRHRPPRLPRPRPRPGSGPRP | 0.0563
3 | RRIRWRPPRLPRPRPRPVLFPRP | -0.0589
4 | RRIRERPPRLPRPRPRPWHDPRP | -0.251
5 | RRIRSRPPRLPRPRPRPLVRPRP | 0.0873
6 | RRIRGRPPRLPRPRPRPLMQPRP | 0.605
7 | RRIRHRPPRLPRPRPRPNLHPRP | -0.759
8 | RRIRERPPRLPRPRPRPVCRPRP | -0.0104
9 | RRIRQRPPRLPRPRPRPGTQPRP | -0.152
10 | RRIRMRPPRLPRPRPRPNEYPRP | -0.0432
11 | RRIRTRPPRLPRPRPRPHAIPRP | 0.103
12 | RRIRARPPRLPRPRPRPPMWPRP | 0.805
13 | RRIRNRPPRLPRPRPRPITPPRP | 0.119
14 | RRIRQRPPRLPRPRPRPDRKPRP | -0.085
15 | RRIRLRPPRLPRPRPRPPIVPRP | -0.531
16 | RRIRDRPPRLPRPRPRPRHLPRP | -0.199
17 | RRIRARPPRLPRPRPRPPQAPRP | 1.03
18 | RRIRFRPPRLPRPRPRPRYSPRP | -0.736
19 | RRIRGRPPRLPRPRPRPMIFPRP | 0.283
20 | RRIRLRPPRLPRPRPRPVAFPRP | 0.0295
21 | RRIRGRPPRLPRPRPRPCPFPRP | -0.218
22 | RRIRVRPPRLPRPRPRPGMIPRP | -0.2
23 | RRIRFRPPRLPRPRPRPVMAPRP | -0.271
24 | RRIRERPPRLPRPRPRPNERPRP | -0.105
25 | RRIRGRPPRLPRPRPRPPCEPRP | 0.433

Row | Sequence | shrunken log2 fold change
26 | RRIRTRPPRLPRPRPRPGRTPRP | -0.0318
27 | RRIRQRPPRLPRPRPRPDDTPRP | 0.00151
28 | RRIRFRPPRLPRPRPRPPAWPRP | 0.354
29 | RRIRPRPPRLPRPRPRPGEWPRP | 0.214
30 | RRIRARPPRLPRPRPRPPNPPRP | 0.662
31 | RRIRYRPPRLPRPRPRPNAAPRP | 0.216
32 | RRIRRRPPRLPRPRPRPFCDPRP | -0.0358
33 | RRIRWRPPRLPRPRPRPYWAPRP | -0.298
34 | RRIRYRPPRLPRPRPRPMYQPRP | -0.124
35 | RRIRQRPPRLPRPRPRPAMFPRP | 0.0399
36 | RRIRMRPPRLPRPRPRPLDTPRP | -0.0606
37 | RRIRLRPPRLPRPRPRPRLIPRP | 0.123
38 | RRIRVRPPRLPRPRPRPDSTPRP | -0.0391
39 | RRIRKRPPRLPRPRPRPHIRPRP | 0.0177
40 | RRIRVRPPRLPRPRPRPALQPRP | 0.0743
41 | RRIRHRPPRLPRPRPRPFTNPRP | -0.0272
42 | RRIRPRPPRLPRPRPRPGKVPRP | -0.0669
43 | RRIRCRPPRLPRPRPRPATLPRP | -0.154
44 | RRIRERPPRLPRPRPRPGFAPRP | 0.604
45 | RRIRKRPPRLPRPRPRPGTNPRP | 0.124
46 | RRIRQRPPRLPRPRPRPMGQPRP | 0.0628
47 | RRIRYRPPRLPRPRPRPTGPPRP | 0.0492
48 | RRIRVRPPRLPRPRPRPCNCPRP | -0.0105
49 | RRIRKRPPRLPRPRPRPRNVPRP | 0.132
50 | RRIRGRPPRLPRPRPRPDHHPRP | -0.0187

Row | Sequence | shrunken log2 fold change
51 | RRIRFRPPRLPRPRPRPLKRPRP | -0.227
52 | RRIRCRPPRLPRPRPRPSCSPRP | -0.482
53 | RRIRVRPPRLPRPRPRPKFHPRP | 0.678
54 | RRIRRRPPRLPRPRPRPSPRPRP | 1.03
55 | RRIRSRPPRLPRPRPRPELQPRP | 0.239
56 | RRIRQRPPRLPRPRPRPEWTPRP | -0.00618
57 | RRIRFRPPRLPRPRPRPMRYPRP | 0.0824
58 | RRIRERPPRLPRPRPRPVAEPRP | 0.0949
59 | RRIRERPPRLPRPRPRPKHQPRP | -0.0699
60 | RRIRVRPPRLPRPRPRPMCFPRP | -0.178
61 | RRIRLRPPRLPRPRPRPSRWPRP | -0.279
62 | RRIRWRPPRLPRPRPRPIVKPRP | -0.174
63 | RRIRNRPPRLPRPRPRPKWMPRP | -0.19
64 | RRIRSRPPRLPRPRPRPNEKPRP | -0.0451
65 | RRIRCRPPRLPRPRPRPQKMPRP | -0.0362
66 | RRIRPRPPRLPRPRPRPLLNPRP | -0.224
67 | RRIRNRPPRLPRPRPRPQWTPRP | -0.0119
68 | RRIRHRPPRLPRPRPRPSGPPRP | 0.082
69 | RRIRFRPPRLPRPRPRPADEPRP | 0.173
70 | RRIRRRPPRLPRPRPRPESQPRP | 0.303
71 | RRIRFRPPRLPRPRPRPTTAPRP | 0.297
72 | RRIRMRPPRLPRPRPRPTRAPRP | 1.42
73 | RRIRPRPPRLPRPRPRPDVKPRP | -0.137
74 | RRIRSRPPRLPRPRPRPGPSPRP | 0.456
75 | RRIRDRPPRLPRPRPRPQRCPRP | 0.121

Row | Sequence | shrunken log2 fold change
76 | RRIRQRPPRLPRPRPRPWMRPRP | 0.131
77 | RRIRQRPPRLPRPRPRPKMTPRP | 0.00734
78 | RRIRLRPPRLPRPRPRPGYPPRP | -0.361
79 | RRIRRRPPRLPRPRPRPIMPPRP | -0.188
80 | RRIRPRPPRLPRPRPRPMDPPRP | 0.0118
81 | RRIRNRPPRLPRPRPRPVTEPRP | -0.0551
82 | RRIRLRPPRLPRPRPRPSWTPRP | -0.0555
83 | RRIRGRPPRLPRPRPRPTGQPRP | 0.793
84 | RRIRARPPRLPRPRPRPITHPRP | -0.045
85 | RRIRQRPPRLPRPRPRPEMIPRP | -0.0264
86 | RRIRARPPRLPRPRPRPNCSPRP | 0.179
87 | RRIRLRPPRLPRPRPRPFGTPRP | -0.424
88 | RRIRERPPRLPRPRPRPQCIPRP | 0.0341
89 | RRIRARPPRLPRPRPRPRWSPRP | 0.53
90 | RRIRIRPPRLPRPRPRPQRFPRP | -0.231
91 | RRIRQRPPRLPRPRPRPTNSPRP | -0.225
92 | RRIRMRPPRLPRPRPRPNCYPRP | -0.26
93 | RRIRHRPPRLPRPRPRPLTEPRP | -0.342
94 | RRIRYRPPRLPRPRPRPGQGPRP | -0.0311
95 | RRIRWRPPRLPRPRPRPIHGPRP | 0.0966
96 | RRIRPRPPRLPRPRPRPVHWPRP | 0.00332
97 | RRIRGRPPRLPRPRPRPCPKPRP | 0.193
98 | RRIRQRPPRLPRPRPRPVNWPRP | 0.472
99 | RRIRNRPPRLPRPRPRPDNLPRP | -1.04
100 | RRIRDRPPRLPRPRPRPDCPPRP | -0.0117

Row | Sequence | shrunken log2 fold change
101 | RRIRDRPPRLPRPRPRPTIQPRP | -0.0142
102 | RRIRQRPPRLPRPRPRPVQGPRP | 0.0162
103 | RRIRYRPPRLPRPRPRPFPLPRP | -0.109
104 | RRIRNRPPRLPRPRPRPMLIPRP | -0.0638
105 | RRIRARPPRLPRPRPRPHRWPRP | 0.0671
106 | RRIRHRPPRLPRPRPRPIPRPRP | -0.0447
107 | RRIRNRPPRLPRPRPRPLKMPRP | -0.136
108 | RRIRYRPPRLPRPRPRPFLVPRP | -1.03
109 | RRIRMRPPRLPRPRPRPAGAPRP | 1.28
110 | RRIRQRPPRLPRPRPRPFICPRP | -0.0129
111 | RRIRARPPRLPRPRPRPCMRPRP | 0.238
112 | RRIRDRPPRLPRPRPRPVIQPRP | 0.474
113 | RRIRNRPPRLPRPRPRPWTRPRP | -0.00821
114 | RRIRARPPRLPRPRPRPGPSPRP | 0.6
115 | RRIRCRPPRLPRPRPRPIDKPRP | -0.161
116 | RRIRGRPPRLPRPRPRPEGWPRP | 1.99
117 | RRIRFRPPRLPRPRPRPFGRPRP | -0.199
118 | RRIRPRPPRLPRPRPRPKSVPRP | -0.119
119 | RRIRERPPRLPRPRPRPVLSPRP | -0.101
120 | RRIRDRPPRLPRPRPRPIMWPRP | -0.00999
121 | RRIRKRPPRLPRPRPRPFNVPRP | -0.172
122 | RRIRDRPPRLPRPRPRPRFWPRP | 0.935
123 | RRIRDRPPRLPRPRPRPWREPRP | 0.00581
124 | RRIRCRPPRLPRPRPRPRNIPRP | -0.33
125 | RRIRSRPPRLPRPRPRPGRRPRP | 0.263

Source: the supplement of paper PMC9112550, “Optimization of the antimicrobial peptide Bac7 by deep mutational scanning” (BMC Biology, 2022)
